# B1: GST-SIAH2 (enzyme, human, UniProt O43255 1-324, looked up)
# chain: MSRPSSTGPSANKPCSKQPPPQPQHTPSPAAPPAAATISAAGPGSSAVPAAAAVISGPGGGGGAGPVSPQHHELTSLFECPVCFDYVLPPILQCQAGHLVCNQCRQKLSCCPTCRGALTPSIRNLAMEKVASAVLFPCKYATTGCSLTLHHTEKPEHEDICEYRPYSCPCPGASCKWQGSLEAVMSHLMHAHKSITTLQGEDIVFLATDINLPGAVDWVMMQSCFGHHFMLVLEKQEKYEGHQQFFAIVLLIGTRKQAENFAYRLELNGNRRRLTWEATPRSIHDGVAAAIMNSDCLVFDTAIAHLFADNGNLGINVTISTCCP
# notes: E3 ubiquitin ligase SIAH2, human, wild type; also called GST-tagged SIAH2; purified glutathione S-transferase (GST) SIAH2; source: E. coli BL21, purified
# Experiments:
# [1] = target: T1, N-terminal half of His-DBC1 (1–461) (human, UniProt Q8N163 1-461); assay: pull-down; GST-SIAH2 and His-DBC1 proteins from E. coli incubated in vitro overnight, GST beads for 2 hr at 4°C; blotted with an anti-DBC1 antibody; conditions: both partners purified
# T1 construct: source: bacterially expressed (E. coli)
# His-DBC1 = target: T2, His-DBC1 (human, UniProt Q8N163 1-923); assay: as above; conditions: both partners purified
# T2 construct: Deleted in breast cancer 1 (DBC1, CCAR2), human; also called His-tagged DBC1; source: E. coli BL21, purified
# T2 sequence (Q8N163 whole entry): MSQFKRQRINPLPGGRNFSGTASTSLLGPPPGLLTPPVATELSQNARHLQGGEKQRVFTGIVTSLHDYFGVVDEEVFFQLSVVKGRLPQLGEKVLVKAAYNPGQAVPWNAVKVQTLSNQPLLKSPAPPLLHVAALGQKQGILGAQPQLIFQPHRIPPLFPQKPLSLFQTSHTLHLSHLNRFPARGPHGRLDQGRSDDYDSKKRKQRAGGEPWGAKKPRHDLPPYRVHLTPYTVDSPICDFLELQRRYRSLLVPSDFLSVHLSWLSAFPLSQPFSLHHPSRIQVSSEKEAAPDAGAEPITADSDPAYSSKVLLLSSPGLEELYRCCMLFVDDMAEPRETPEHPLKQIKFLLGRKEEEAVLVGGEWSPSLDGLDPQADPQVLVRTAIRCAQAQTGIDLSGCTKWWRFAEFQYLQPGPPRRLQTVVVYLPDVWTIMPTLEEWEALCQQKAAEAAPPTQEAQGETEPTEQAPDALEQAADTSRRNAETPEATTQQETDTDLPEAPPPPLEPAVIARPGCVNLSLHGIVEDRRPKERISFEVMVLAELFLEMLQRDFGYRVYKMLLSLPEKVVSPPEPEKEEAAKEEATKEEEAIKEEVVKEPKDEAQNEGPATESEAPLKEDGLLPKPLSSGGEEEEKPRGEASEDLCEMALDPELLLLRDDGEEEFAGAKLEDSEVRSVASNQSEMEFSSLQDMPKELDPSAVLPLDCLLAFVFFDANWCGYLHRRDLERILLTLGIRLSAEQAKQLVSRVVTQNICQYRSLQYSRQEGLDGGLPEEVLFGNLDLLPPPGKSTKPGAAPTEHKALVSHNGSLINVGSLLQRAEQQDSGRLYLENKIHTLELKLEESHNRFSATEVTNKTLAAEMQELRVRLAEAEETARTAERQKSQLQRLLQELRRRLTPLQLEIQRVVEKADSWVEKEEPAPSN
# T1 sequence (Q8N163 1-461): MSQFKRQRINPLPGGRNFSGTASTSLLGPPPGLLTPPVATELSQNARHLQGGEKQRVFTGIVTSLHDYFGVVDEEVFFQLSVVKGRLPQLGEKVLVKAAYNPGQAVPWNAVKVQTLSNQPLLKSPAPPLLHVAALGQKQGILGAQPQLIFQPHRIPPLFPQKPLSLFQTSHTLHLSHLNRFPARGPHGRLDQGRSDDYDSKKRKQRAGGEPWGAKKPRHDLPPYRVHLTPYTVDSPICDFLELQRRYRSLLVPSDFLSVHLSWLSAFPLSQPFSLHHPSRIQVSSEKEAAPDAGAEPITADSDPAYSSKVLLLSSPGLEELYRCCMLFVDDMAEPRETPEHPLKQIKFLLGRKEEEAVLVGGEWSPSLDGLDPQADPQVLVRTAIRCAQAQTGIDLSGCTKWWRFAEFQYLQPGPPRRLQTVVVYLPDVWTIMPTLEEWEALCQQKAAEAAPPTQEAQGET
binder,measurement,setting,value
B1,binding result,[1],binds
same,binding result,His-DBC1,binds

# From publication PMC9377797, “Hypoxia-induced proteasomal degradation of DBC1 by SIAH2 in breast cancer progression” (eLife, 2022)
